{"source": "patent US12698507B2", "about": "“Methods and compositions for conferring and/or enhancing herbicide tolerance using protoporphyrinogen IX oxidase of various cyanobacteria or variant thereof” (FarmHannong Co., Ltd., priority 2019, dated 2026)", "molecules": {"B1": {"name": "CyPPO19 V165S + A167C + F360L: variant of CyPPO19 PPO protein (SEQ ID NO: 1) (protein)", "chain": "MSEVDVAIVGGGLSGLSLAWRLQQSAPQYSVVLLEASDRLGGNITTQTAEGFVWELGPNSFAPTPALLQLIAEVGLQSELIRGDRHLPRYIYWRGQLYPLQPTRPLALATSNLLSPWGKVRAALGALGFVPPYLGSGDESVNSFFRRHLGQEVAERLVAPFVSGSYCGDPQQLSAAAAFRRIAQLEKLGGGLIAGALHLRRQQAPKPKPPTSVQMRPGELGSFKEGLAALPRAIAQQLKAPIHLQTPVQEITPDPKGGYLLRSGEQTWRARSVVLATPAYQTAELVAPFQPAIARVLATIPYPTVACVVLAYPAGLGRSVRPGFGVLIPRSQGIRTLGTIWSSCLFPQRTPAGWQVFTSLIGGATDPDLASLSEEAIVQQVQQDLNRLLDLPAAKARLLGMKVWRRAIPQYMVGYPEQWQQVTHALSQTPGLFLCSNYAEGVALGDRVEHGNRTAAAVAAYLSGGQP", "modifications": "Synthetic_PPO of Thermosynechococcus elongatus PKUAC-SCTE542 (comprising GenBank No. CP032152.1)"}, "B2": {"name": "CyPPO19 V165S + V305L + F360L: variant of CyPPO19 PPO protein (SEQ ID NO: 1) (protein)", "chain": "B1 chain with C167A, V305L", "modifications": "Synthetic_PPO of Thermosynechococcus elongatus PKUAC-SCTE542 (comprising GenBank No. CP032152.1)"}, "B3": {"name": "CyPPO19 V165C + A167L + F360T: variant of CyPPO19 PPO protein (SEQ ID NO: 1) (protein)", "chain": "B1 chain with S165C, C167L, L360T", "modifications": "Synthetic_PPO of Thermosynechococcus elongatus PKUAC-SCTE542 (comprising GenBank No. CP032152.1)"}, "B4": {"name": "CyPPO19 V165C + L327T + F360I: variant of CyPPO19 PPO protein (SEQ ID NO: 1) (protein)", "chain": "B1 chain with S165C, C167A, L327T, L360I", "modifications": "Synthetic_PPO of Thermosynechococcus elongatus PKUAC-SCTE542 (comprising GenBank No. CP032152.1)"}, "B5": {"name": "CyPPO19 V165C + V305M + F360I: variant of CyPPO19 PPO protein (SEQ ID NO: 1) (protein)", "chain": "B1 chain with S165C, C167A, V305M, L360I", "modifications": "Synthetic_PPO of Thermosynechococcus elongatus PKUAC-SCTE542 (comprising GenBank No. CP032152.1)"}, "B6": {"name": "CyPPO19 V165S + L327T + F360T: variant of CyPPO19 PPO protein (SEQ ID NO: 1) (protein)", "chain": "B1 chain with C167A, L327T, L360T", "modifications": "Synthetic_PPO of Thermosynechococcus elongatus PKUAC-SCTE542 (comprising GenBank No. CP032152.1)"}, "B7": {"name": "CyPPO19 V165C + L327T + F360V: variant of CyPPO19 PPO protein (SEQ ID NO: 1) (protein)", "chain": "B1 chain with S165C, C167A, L327T, L360V", "modifications": "Synthetic_PPO of Thermosynechococcus elongatus PKUAC-SCTE542 (comprising GenBank No. CP032152.1)"}, "B8": {"name": "CyPPO19 V165C + V305M + F360V: variant of CyPPO19 PPO protein (SEQ ID NO: 1) (protein)", "chain": "B1 chain with S165C, C167A, V305M, L360V", "modifications": "Synthetic_PPO of Thermosynechococcus elongatus PKUAC-SCTE542 (comprising GenBank No. CP032152.1)"}}, "note": "Where a chain is given by its changes, count along the chain named. Names and notes keep the numbering of the source."}
{"test_system": "PPO-deficient BT3 E. coli (ΔPPO)", "experiment": "PPO-inhibiting herbicide tolerance test of PPO variants in E. coli (growth on herbicide-containing LB agar)", "type": "cell-based", "details": "CyPPO19 variants in BT3 (ΔPPO) E. coli; LB agar with 0 to 2,000 μM herbicide, 37° C., dark, 16-20 hours", "text": "To enhance the PPO-inhibiting herbicide resistance of CyPPO19 and CyPPO18, PPO variant genes of the above example 2 were constructed. They were transformed to BT3 (ΔPPO) strain which is deficient of PPO activity and cultured in LB media with PPO-inhibiting herbicide, thereby examining whether growth of transformed BT3 was not inhibited.\nBT3 competent cells were transformed with the pET303-CyPPO19 (wild type), pET303-CyPPO18 (wild type) plasmids, and those with a mutation(s) constructed (refer to example 2) via heat shock method, and were cultured in LB agar media containing ampicillin.\nSingle colony transformed with each CyPPO gene was cultured in 3 mL of LB broth (LPSS) containing ampicillin for more than 12 hours, and then was subcultured in LB broth until absorbance (OD600) reached 0.5 to 1. Then, it was diluted with LB broth to OD600=0.5. Again, the diluted solution was serially diluted 4 times by a factor of one tenth.\nThe LB agar media (LB 25 g/L, Bacto agar 12 g/L) containing ampicillin (100 μg/mL) and 0 to 2,000 μM of various herbicides were prepared. Herbicide solution stocks were all prepared in DMSO.\nThen, 10 μL of each diluted solution of E. coli was dropped on the plate and cultured at 37° C. under dark for 16-20 hours. PPO-inhibiting herbicide resistance was evaluated with the extent of E. coli growth containing each gene was observed.\nThe extent of herbicide resistance was evaluated by the relative growth of variants to that of wild type, and listed in Tables 9 and 10 and FIGS. 3 to 32.\nIn Tables 9 and 10, the tolerance level of variants showing equivalent resistance to wild type was presented as ‘−’, and was done as ‘+’ per each 10-fold resistance until ‘+++++’ as maximal resistance.\nFIGS. 3 to 30 and FIGS. 31 and 32 show the transformed E. coli growth result of CyPPO19 WT and its variants and CyPPO18 WT and its variants, respectively. The concentrations of herbicides were written above the photographs of tolerance test. A 10-fold dilution series of spots were shown from OD600=0.5 of the leftmost spot to OD600=0.00005 of the rightmost one."}
{"molecule": "B1", "tolerance level relative to wild type, Carfentrazone": "+ (‘+’ per each 10-fold resistance)", "tolerance level relative to wild type, Flumioxazin": "++++ (‘+’ per each 10-fold resistance)", "tolerance level relative to wild type, Fomesafen": "+ (‘+’ per each 10-fold resistance)", "tolerance level relative to wild type, Oxyfluorfen": "+ (‘+’ per each 10-fold resistance)", "tolerance level relative to wild type, Saflufenacil": "+++ (‘+’ per each 10-fold resistance)", "tolerance level relative to wild type, Sulfentrazone": "++ (‘+’ per each 10-fold resistance)", "tolerance level relative to wild type, Tiafenacil": "++++ (‘+’ per each 10-fold resistance)"}
{"molecule": "B2", "tolerance level relative to wild type, Carfentrazone": "+ (‘+’ per each 10-fold resistance)", "tolerance level relative to wild type, Flumioxazin": "+++++ (until ‘+++++’ as maximal resistance)", "tolerance level relative to wild type, Fomesafen": "+++ (‘+’ per each 10-fold resistance)", "tolerance level relative to wild type, Oxyfluorfen": "+++ (‘+’ per each 10-fold resistance)", "tolerance level relative to wild type, Saflufenacil": "+++++ (until ‘+++++’ as maximal resistance)", "tolerance level relative to wild type, Sulfentrazone": "+++++ (until ‘+++++’ as maximal resistance)", "tolerance level relative to wild type, Tiafenacil": "+++++ (until ‘+++++’ as maximal resistance)"}
{"molecule": "B3", "tolerance level relative to wild type, Carfentrazone": "+ (‘+’ per each 10-fold resistance)", "tolerance level relative to wild type, Flumioxazin": "+++ (‘+’ per each 10-fold resistance)", "tolerance level relative to wild type, Fomesafen": "++ (‘+’ per each 10-fold resistance)", "tolerance level relative to wild type, Oxyfluorfen": "+ (‘+’ per each 10-fold resistance)", "tolerance level relative to wild type, Saflufenacil": "+++ (‘+’ per each 10-fold resistance)", "tolerance level relative to wild type, Sulfentrazone": "+++ (‘+’ per each 10-fold resistance)", "tolerance level relative to wild type, Tiafenacil": "++++ (‘+’ per each 10-fold resistance)"}
{"molecule": "B4", "tolerance level relative to wild type, Carfentrazone": "+ (‘+’ per each 10-fold resistance)", "tolerance level relative to wild type, Flumioxazin": "+++++ (until ‘+++++’ as maximal resistance)", "tolerance level relative to wild type, Fomesafen": "++ (‘+’ per each 10-fold resistance)", "tolerance level relative to wild type, Oxyfluorfen": "+++ (‘+’ per each 10-fold resistance)", "tolerance level relative to wild type, Saflufenacil": "++++ (‘+’ per each 10-fold resistance)", "tolerance level relative to wild type, Sulfentrazone": "+++++ (until ‘+++++’ as maximal resistance)", "tolerance level relative to wild type, Tiafenacil": "+++++ (until ‘+++++’ as maximal resistance)"}
{"molecule": "B5", "tolerance level relative to wild type, Carfentrazone": "+ (‘+’ per each 10-fold resistance)", "tolerance level relative to wild type, Flumioxazin": "+++++ (until ‘+++++’ as maximal resistance)", "tolerance level relative to wild type, Fomesafen": "++ (‘+’ per each 10-fold resistance)", "tolerance level relative to wild type, Oxyfluorfen": "++ (‘+’ per each 10-fold resistance)", "tolerance level relative to wild type, Saflufenacil": "+++++ (until ‘+++++’ as maximal resistance)", "tolerance level relative to wild type, Sulfentrazone": "+++ (‘+’ per each 10-fold resistance)", "tolerance level relative to wild type, Tiafenacil": "+++++ (until ‘+++++’ as maximal resistance)"}
{"molecule": "B6", "tolerance level relative to wild type, Carfentrazone": "+ (‘+’ per each 10-fold resistance)", "tolerance level relative to wild type, Flumioxazin": "+++++ (until ‘+++++’ as maximal resistance)", "tolerance level relative to wild type, Fomesafen": "+++ (‘+’ per each 10-fold resistance)", "tolerance level relative to wild type, Oxyfluorfen": "++ (‘+’ per each 10-fold resistance)", "tolerance level relative to wild type, Saflufenacil": "++++ (‘+’ per each 10-fold resistance)", "tolerance level relative to wild type, Sulfentrazone": "+++ (‘+’ per each 10-fold resistance)", "tolerance level relative to wild type, Tiafenacil": "++++ (‘+’ per each 10-fold resistance)"}
{"molecule": "B7", "tolerance level relative to wild type, Carfentrazone": "+ (‘+’ per each 10-fold resistance)", "tolerance level relative to wild type, Flumioxazin": "+++++ (until ‘+++++’ as maximal resistance)", "tolerance level relative to wild type, Fomesafen": "+ (‘+’ per each 10-fold resistance)", "tolerance level relative to wild type, Oxyfluorfen": "+++ (‘+’ per each 10-fold resistance)", "tolerance level relative to wild type, Saflufenacil": "++++ (‘+’ per each 10-fold resistance)", "tolerance level relative to wild type, Sulfentrazone": "+++++ (until ‘+++++’ as maximal resistance)", "tolerance level relative to wild type, Tiafenacil": "+++++ (until ‘+++++’ as maximal resistance)"}
{"molecule": "B8", "tolerance level relative to wild type, Carfentrazone": "+ (‘+’ per each 10-fold resistance)", "tolerance level relative to wild type, Flumioxazin": "+++++ (until ‘+++++’ as maximal resistance)", "tolerance level relative to wild type, Fomesafen": "++ (‘+’ per each 10-fold resistance)", "tolerance level relative to wild type, Oxyfluorfen": "+++ (‘+’ per each 10-fold resistance)", "tolerance level relative to wild type, Saflufenacil": "+++++ (until ‘+++++’ as maximal resistance)", "tolerance level relative to wild type, Sulfentrazone": "++++ (‘+’ per each 10-fold resistance)", "tolerance level relative to wild type, Tiafenacil": "+++++ (until ‘+++++’ as maximal resistance)"}
